{"source": "patent WO2012010582A1", "biological_target": "human CXCR5 (human) (UniProt P32302)", "sequence (P32302 whole entry)": "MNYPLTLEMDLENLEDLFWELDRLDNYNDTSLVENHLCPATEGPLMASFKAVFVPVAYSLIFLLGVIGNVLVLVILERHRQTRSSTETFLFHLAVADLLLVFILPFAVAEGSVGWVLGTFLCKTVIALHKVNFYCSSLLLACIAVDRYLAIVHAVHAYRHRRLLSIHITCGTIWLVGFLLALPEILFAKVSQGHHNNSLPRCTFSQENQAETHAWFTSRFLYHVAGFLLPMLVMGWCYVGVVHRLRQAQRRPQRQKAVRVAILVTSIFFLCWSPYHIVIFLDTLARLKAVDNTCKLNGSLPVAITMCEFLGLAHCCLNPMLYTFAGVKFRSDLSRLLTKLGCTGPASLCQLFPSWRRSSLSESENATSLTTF", "assay": "cell-based or functional assay"}
{"substance": "human CXCL13 (from UniProt O43927 23-94) (ligand)", "values": [{"measurement": "Ca-flux (FLU) at 0 nM rhCXCL13 (baseline)", "value": 1680, "unit": "FLU"}, {"measurement": "Ca-flux (FLU) at 1.95 nM rhCXCL13", "value": 2220, "unit": "FLU"}, {"measurement": "Ca-flux (FLU) at 3.91 nM rhCXCL13", "value": 1840, "unit": "FLU"}, {"measurement": "Ca-flux (FLU) at 7.81 nM rhCXCL13", "value": 1860, "unit": "FLU"}, {"measurement": "Ca-flux (FLU) at 16 nM rhCXCL13", "value": 6160, "unit": "FLU"}, {"measurement": "Ca-flux (FLU) at 31 nM rhCXCL13", "value": 31100, "unit": "FLU"}, {"measurement": "Ca-flux (FLU) at 63 nM rhCXCL13", "value": 51900, "unit": "FLU"}, {"measurement": "Ca-flux (FLU) at 125 nM rhCXCL13", "value": 74700, "unit": "FLU"}, {"measurement": "Ca-flux (FLU) at 250 nM rhCXCL13", "value": 78400, "unit": "FLU"}, {"measurement": "Ca-flux (FLU) at 500 nM rhCXCL13", "value": 68100, "unit": "FLU"}]}
